Measured values reported in patent EP4640709A1 (CHIOME BIOSCIENCE INC., dated 2025).
Changes are numbered by the printed parent chain. Where two headings read alike, the source gives them in different places.

Tests used:
human CX3CR1 [1] = target: T1, human CX3CR1 (human, UniProt P49238 1-355); test: binding to hCX3CR1-expressing Eurofins cells
T1 construct: Expressed on Ba/F3 cells (made by the inventors from P49238-1); also called hCX3CR1
T1 sequence: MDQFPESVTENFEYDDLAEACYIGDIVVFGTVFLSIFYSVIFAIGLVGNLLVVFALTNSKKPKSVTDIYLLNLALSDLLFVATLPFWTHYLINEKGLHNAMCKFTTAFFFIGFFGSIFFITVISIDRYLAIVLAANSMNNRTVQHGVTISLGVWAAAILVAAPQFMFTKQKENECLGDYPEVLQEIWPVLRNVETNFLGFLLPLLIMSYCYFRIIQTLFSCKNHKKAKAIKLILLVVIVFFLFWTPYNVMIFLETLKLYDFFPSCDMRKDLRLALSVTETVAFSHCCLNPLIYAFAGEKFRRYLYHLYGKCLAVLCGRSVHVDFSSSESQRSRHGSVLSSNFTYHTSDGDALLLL

human CX3CR1 [2] = target: T1, human CX3CR1; test: cell-based or functional assay
mouse CX3CR1 [3] = target: T2, mouse CX3CR1 (mouse, UniProt Q9Z0D9 1-354); test: flow cytometry, CX3CR1-expressing Ba/F3 cells
T2 construct: whole, on cells; Expressed on Ba/F3 cells; also called mCX3CR1
T2 sequence (looked up): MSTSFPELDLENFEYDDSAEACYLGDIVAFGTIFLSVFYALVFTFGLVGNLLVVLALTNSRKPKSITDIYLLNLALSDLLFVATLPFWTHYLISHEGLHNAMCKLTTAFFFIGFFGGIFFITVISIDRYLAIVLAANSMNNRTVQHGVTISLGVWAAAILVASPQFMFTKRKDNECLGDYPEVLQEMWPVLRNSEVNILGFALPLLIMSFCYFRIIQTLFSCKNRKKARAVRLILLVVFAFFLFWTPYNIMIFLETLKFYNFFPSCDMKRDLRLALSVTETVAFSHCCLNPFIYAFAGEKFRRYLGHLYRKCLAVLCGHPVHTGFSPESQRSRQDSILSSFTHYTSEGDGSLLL

rat CX3CR1 [4] = target: T3, rat CX3CR1 (rat, UniProt P35411 1-354); test: flow cytometry, CX3CR1-expressing Ba/F3 cells
T3 construct: whole, on cells; Expressed on Ba/F3 cells; also called rCX3CR1
T3 sequence (looked up): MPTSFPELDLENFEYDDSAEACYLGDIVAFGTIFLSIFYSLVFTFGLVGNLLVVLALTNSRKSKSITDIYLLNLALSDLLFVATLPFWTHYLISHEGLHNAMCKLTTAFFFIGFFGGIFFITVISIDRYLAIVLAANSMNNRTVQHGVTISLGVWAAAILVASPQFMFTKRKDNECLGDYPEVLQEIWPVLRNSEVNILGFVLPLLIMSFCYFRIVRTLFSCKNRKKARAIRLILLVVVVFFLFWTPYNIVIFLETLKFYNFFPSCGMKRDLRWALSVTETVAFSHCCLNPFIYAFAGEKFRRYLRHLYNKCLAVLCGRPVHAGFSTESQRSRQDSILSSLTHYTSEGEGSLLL

human CX3CR1 [5] = target: T1, human CX3CR1; test: flow cytometry, binding to hCX3CR1-expressing Ba/F3 cells
[6] = target: T4, mCX3CR1-2 (chimeric CX3CR1); test: flow cytometry, chimeric CX3CR1-expressing Ba/F3 cells
T4 construct: Whole, on Ba/F3 cells

mouse CX3CR1 [7] = target: T2, mouse CX3CR1; test: as above
[8] = target: T5, mCX3CR1-3 (chimeric CX3CR1); test: as above
T5 construct: Whole, on Ba/F3 cells

[9] = target: T6, mCX3CR1-4 (chimeric CX3CR1); test: as above
T6 construct: Whole, on Ba/F3 cells

human CX3CR1 [10] = target: T1, human CX3CR1; test: flow cytometry, chimeric CX3CR1-expressing Ba/F3 cells, 200 nM, grade vs positive antibody (+++ >70%, ++ 40-70%, + 10-40%, - <10%)
[11] = target: T7, hCX3CR1-4 (chimeric CX3CR1); test: as above
T7 construct: Whole, on Ba/F3 cells

[12] = target: T8, hCX3CR1-3 (chimeric CX3CR1); test: as above
T8 construct: Whole, on Ba/F3 cells

[13] = target: T9, hCX3CR1-2 (chimeric CX3CR1); test: as above
T9 construct: Whole, on Ba/F3 cells

[14] = target: T10, mCX3CR1-1 (chimeric CX3CR1); test: as above
T10 construct: Whole, on Ba/F3 cells

[15] = target: T11, hCX3CR1-1 (chimeric CX3CR1); test: as above
T11 construct: Whole, on Ba/F3 cells

human CX3CR1 [16] = target: T1, human CX3CR1; test: cell-based or functional assay; remark: listed apart in the source
[17] = target: T6, mCX3CR1-4 (chimeric CX3CR1); test: flow cytometry, chimeric CX3CR1-expressing Ba/F3 cells, 200 nM, grade vs positive antibody (+++ >70%, ++ 40-70%, + 10-40%, - <10%)
human CX3CR1 [18] = target: T1, human CX3CR1; test: cell-based or functional assay; remark: listed apart in the source
human CX3CR1 [19] = target: T1, human CX3CR1; test: flow cytometry, EC50 on hCX3CR1-expressing Ba/F3 cells, against m1F8
mouse CX3CR1 [20] = target: T2, mouse CX3CR1; test: flow cytometry, CX3CR1-expressing Ba/F3 cells, relative to Synagis
rat CX3CR1 [21] = target: T3, rat CX3CR1; test: as above

B1: h1F8-2-1 (antibody, V domains shown)
VH: QVQLVQSGAEVKKPGSSVKVSCKASGFTFTNYWMQWIRQAPGQGLEWIGAIYPGSGESRYTRKFKGRATITADKSTSTAYMELSSLRSEDTAVYYCARWAGYSRNAAYWGQGTLVTVSS
VL: DIVMTQTPLSLPVTPGEPASISCRSRQSIVHSSGNTYLEWYLQKPGQSPQLLIYKVSNRFSGVPDRFSGSGSGTDFTLKISRVEAEDVGVYYCFQGSHIPPTFGGGTKVEIK
notes: Humanized antibody; also called humanized 1F8 antibody h1F8-2-1
EC50 (human CX3CR1 [1]): 4.42 nM
Cell migration inhibitory activity (IC50, nM) (human CX3CR1 [2]): 2.02 nM

B2: m1F8-1 antibody (antibody, V domains shown)
VH: QVQLQQSGAELARPGASVKLSCKASGFTFTNYWMQWIKQRPGQGLEWIGAIYPGSGESRYTRKFKGKATLTADKSSSTAYMQLNSLASEDSAVYYCARWAGYSRNAAYWGQGTLVTVSA
VL: B1 VL with I2V, V3L, T14S, P15L, E17D, P18Q, R26S, Q50K, V88L, V109L
notes: also called activity-enhanced m1F8 antibody
binding result (mouse CX3CR1 [3]): no binding (tested: <10% of positive antibody at 200 nM)
binding result (rat CX3CR1 [4]): no binding (tested: <10% of positive antibody at 200 nM)
EC50 (human CX3CR1 [5]): 6.69 nM
relative measured value (flow cytometry reactivity, MFI) compared to positive antibody at 200 nM [6]: < 10%
relative measured value (flow cytometry reactivity, MFI) compared to positive antibody at 200 nM (mouse CX3CR1 [7]): < 10%
relative measured value (flow cytometry reactivity, MFI) compared to positive antibody at 200 nM [8]: < 10%
relative measured value (flow cytometry reactivity, MFI) compared to positive antibody at 200 nM [9]: < 10%
relative measured value (flow cytometry reactivity, MFI) compared to positive antibody at 200 nM (human CX3CR1 [10]): > 70%
relative measured value (flow cytometry reactivity, MFI) compared to positive antibody at 200 nM [11]: > 70%
relative measured value (flow cytometry reactivity, MFI) compared to positive antibody at 200 nM [12]: > 70%
relative measured value (flow cytometry reactivity, MFI) compared to positive antibody at 200 nM [13]: > 70%
relative measured value (flow cytometry reactivity, MFI) compared to positive antibody at 200 nM [14]: > 70%
relative measured value (flow cytometry reactivity, MFI) compared to positive antibody at 200 nM [15]: 40 to 70%
Cell migration inhibitory activity (IC50, nM) (human CX3CR1 [16]): 5.32 nM

B3: m1F8-2 antibody (antibody, V domains shown)
VH: B2 VH
VL: B1 VL with I2V, V3L, T14S, P15L, E17D, P18Q, Q50K, V88L, V109L
notes: as for B2
binding result (mouse CX3CR1 [3]): no binding (tested: <10% of positive antibody at 200 nM)
binding result (rat CX3CR1 [4]): no binding (tested: <10% of positive antibody at 200 nM)
EC50 (human CX3CR1 [5]): 2.67 nM
relative measured value (flow cytometry reactivity, MFI) compared to positive antibody at 200 nM [6]: < 10%
relative measured value (flow cytometry reactivity, MFI) compared to positive antibody at 200 nM (mouse CX3CR1 [7]): < 10%
relative measured value (flow cytometry reactivity, MFI) compared to positive antibody at 200 nM [8]: < 10%
relative measured value (flow cytometry reactivity, MFI) compared to positive antibody at 200 nM (human CX3CR1 [10]): > 70%
relative measured value (flow cytometry reactivity, MFI) compared to positive antibody at 200 nM [11]: > 70%
relative measured value (flow cytometry reactivity, MFI) compared to positive antibody at 200 nM [12]: > 70%
relative measured value (flow cytometry reactivity, MFI) compared to positive antibody at 200 nM [13]: > 70%
relative measured value (flow cytometry reactivity, MFI) compared to positive antibody at 200 nM [14]: > 70%
relative measured value (flow cytometry reactivity, MFI) compared to positive antibody at 200 nM [15]: 40 to 70%
relative measured value (flow cytometry reactivity, MFI) compared to positive antibody at 200 nM [17]: 10 to 40%
improvement in inhibitory activity against fractalkine-dependent cell migration compared to the original m1F8 antibody (human CX3CR1 [18]): ≥ 15 fold
fold improvement in binding activity compared to the original m1F8 antibody (human CX3CR1 [19]): ≥ 70 fold
Cell migration inhibitory activity (IC50, nM) (human CX3CR1 [16]): 2.96 nM

B4: h1F8-2-3 (antibody, V domains shown)
VH: B1 VH with I70L
VL: B1 VL
notes: Humanized antibody; also called humanized 1F8 antibody h1F8-2-3
EC50 (human CX3CR1 [1]): 4.02 nM
Cell migration inhibitory activity (IC50, nM) (human CX3CR1 [2]): 1.4 nM

B5: h1F8-2-4 (antibody, V domains shown)
VH: B1 VH with A68V
VL: B1 VL
notes: Humanized antibody; also called humanized 1F8 antibody h1F8-2-4
EC50 (human CX3CR1 [1]): 4.42 nM
Cell migration inhibitory activity (IC50, nM) (human CX3CR1 [2]): 2.61 nM

B6: h1F8-2-2 antibody (antibody, IgG1, V domains shown)
VH: B1 VH with R67K
VL: B1 VL
notes: Humanized antibody; also called humanized 1F8 antibody (h1F8-2-2)
binding result (mouse CX3CR1 [20]): no binding
binding result (rat CX3CR1 [21]): no binding
EC50 (human CX3CR1 [1]): 3.1 nM
Cell migration inhibitory activity (IC50, nM) (human CX3CR1 [2]): 1.27 nM
